The values that follow come from patent US20100273722A1, “MODIFIED MINIATURE PROTEINS” (Yale University, priority 2007, published 2010).

This test addresses Down-regulated Hck kinase (containing an N-terminal His6 tag). Description: cell-based or functional assay.

The substance HIV Nef protein came in with an Activity (nmol · sec^-1), activator at 50 micromolar (nmol · sec^-1) of 232 and a Fold-Activation, activator at 50 micromolar of 21 fold.
